Results: patent US20110105394A1 (Novo Nordisk, published 2011)
*1 amine or outer side, *2 acyl side, *3 side chain or, on linkers, in order; H or OH if unused. Bridges are numbered along the chain shown (N, C = ends). Where no end group is shown, it is not given here. The star is where a group is joined. X2 = (S)‑4‑Carboxy‑4‑(19-carboxynonadecanoylamino)butyryl, O=C(O)CCCCCCCCCCCCCCCCCCC(=O)N[C@@H](CCC(=O)*)C(=O)O; C20 diacid = O=C(O)CCCCCCCCCCCCCCCCCCC(=O)*; C18 diacid = O=C(O)CCCCCCCCCCCCCCCCC(=O)*; γGlu = O=C(O)[C@H](CCC(=O)[*:2])N[*:1]; AEEA = NCCOCCOCC(=O)O

T1: Amylin 3(a) receptor (human calcitonin receptor (CTa) with RAMP-3) (human, UniProt P30988 25-474; O60896 24-148, limits assumed)
T1 sequence (looked up) 1: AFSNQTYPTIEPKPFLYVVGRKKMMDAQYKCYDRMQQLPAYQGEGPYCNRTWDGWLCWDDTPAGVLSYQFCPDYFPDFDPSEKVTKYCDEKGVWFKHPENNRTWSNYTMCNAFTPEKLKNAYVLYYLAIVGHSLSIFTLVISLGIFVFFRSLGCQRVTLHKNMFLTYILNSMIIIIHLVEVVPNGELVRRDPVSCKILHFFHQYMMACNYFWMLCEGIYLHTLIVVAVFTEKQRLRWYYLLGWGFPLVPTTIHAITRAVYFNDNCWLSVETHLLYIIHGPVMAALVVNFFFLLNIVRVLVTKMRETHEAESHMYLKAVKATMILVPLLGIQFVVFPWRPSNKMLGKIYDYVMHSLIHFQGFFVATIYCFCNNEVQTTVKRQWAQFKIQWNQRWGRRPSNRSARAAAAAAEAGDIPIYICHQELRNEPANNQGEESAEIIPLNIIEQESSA
T1 sequence (looked up) 2: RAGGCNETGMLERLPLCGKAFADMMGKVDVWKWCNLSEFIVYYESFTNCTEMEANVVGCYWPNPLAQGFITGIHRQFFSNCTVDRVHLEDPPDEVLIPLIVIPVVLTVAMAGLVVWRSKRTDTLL

B1: N-alpha-[(S)-4-Carboxy-4-(19-carboxynonadecanoylamino)butyryl]-Glu-Arg-His-[Arg1,His17]-pramlintide (peptide)
peptide: X2-ERHRCNTATCATQRLANFLHHSSNNFGPILPPTNVGSNTY-NH2
modifications: disulfide 5-10
SMILES: CC[C@H](C)[C@H](NC(=O)[C@@H]1CCCN1C(=O)CNC(=O)[C@H](Cc1ccccc1)NC(=O)[C@H](CC(N)=O)NC(=O)[C@H](CC(N)=O)NC(=O)[C@H](CO)NC(=O)[C@H](CO)NC(=O)[C@H](Cc1c[nH]cn1)NC(=O)[C@H](Cc1c[nH]cn1)NC(=O)[C@H](CC(C)C)NC(=O)[C@H](Cc1ccccc1)NC(=O)[C@H](CC(N)=O)NC(=O)[C@H](C)NC(=O)[C@H](CC(C)C)NC(=O)[C@H](CCCNC(=N)N)NC(=O)[C@H](CCC(N)=O)NC(=O)[C@@H](NC(=O)[C@H](C)NC(=O)[C@@H]1CSSC[C@H](NC(=O)[C@H](CCCNC(=N)N)NC(=O)[C@H](Cc2c[nH]cn2)NC(=O)[C@H](CCCNC(=N)N)NC(=O)[C@H](CCC(=O)O)NC(=O)CC[C@H](NC(=O)CCCCCCCCCCCCCCCCCCC(=O)O)C(=O)O)C(=O)N[C@@H](CC(N)=O)C(=O)N[C@@H]([C@@H](C)O)C(=O)N[C@@H](C)C(=O)N[C@@H]([C@@H](C)O)C(=O)N1)[C@@H](C)O)C(=O)N[C@@H](CC(C)C)C(=O)N1CCC[C@H]1C(=O)N1CCC[C@H]1C(=O)N[C@H](C(=O)N[C@@H](CC(N)=O)C(=O)N[C@H](C(=O)NCC(=O)N[C@@H](CO)C(=O)N[C@@H](CC(N)=O)C(=O)N[C@H](C(=O)N[C@@H](Cc1ccc(O)cc1)C(N)=O)[C@@H](C)O)C(C)C)[C@@H](C)O
B2: N-alpha-[19-carboxynonadecanoyl]-Glu-Lys-Arg-[His17]-pramlintide (peptide)
peptide: {C20 diacid}-EKRKCNTATCATQRLANFLHHSSNNFGPILPPTNVGSNTY-NH2
modifications: disulfide 5-10
SMILES: CC[C@H](C)[C@H](NC(=O)[C@@H]1CCCN1C(=O)CNC(=O)[C@H](Cc1ccccc1)NC(=O)[C@H](CC(N)=O)NC(=O)[C@H](CC(N)=O)NC(=O)[C@H](CO)NC(=O)[C@H](CO)NC(=O)[C@H](Cc1c[nH]cn1)NC(=O)[C@H](Cc1c[nH]cn1)NC(=O)[C@H](CC(C)C)NC(=O)[C@H](Cc1ccccc1)NC(=O)[C@H](CC(N)=O)NC(=O)[C@H](C)NC(=O)[C@H](CC(C)C)NC(=O)[C@H](CCCNC(=N)N)NC(=O)[C@H](CCC(N)=O)NC(=O)[C@@H](NC(=O)[C@H](C)NC(=O)[C@@H]1CSSC[C@H](NC(=O)[C@H](CCCCN)NC(=O)[C@H](CCCNC(=N)N)NC(=O)[C@H](CCCCN)NC(=O)[C@H](CCC(=O)O)NC(=O)CCCCCCCCCCCCCCCCCCC(=O)O)C(=O)N[C@@H](CC(N)=O)C(=O)N[C@@H]([C@@H](C)O)C(=O)N[C@@H](C)C(=O)N[C@@H]([C@@H](C)O)C(=O)N1)[C@@H](C)O)C(=O)N[C@@H](CC(C)C)C(=O)N1CCC[C@H]1C(=O)N1CCC[C@H]1C(=O)N[C@H](C(=O)N[C@@H](CC(N)=O)C(=O)N[C@H](C(=O)NCC(=O)N[C@@H](CO)C(=O)N[C@@H](CC(N)=O)C(=O)N[C@H](C(=O)N[C@@H](Cc1ccc(O)cc1)C(N)=O)[C@@H](C)O)C(C)C)[C@@H](C)O
B3: N-alpha-[(S)-4-Carboxy-4-(19-carboxynonadecanoylamino)butyryl]-His-His-[Arg1,His17]-pramlintide (peptide)
peptide: HHRCNTATCATQRLANFLHHSSNNFGPILPPTNVGSNTY-NH2
modifications: disulfide 4-9; not fully specified (N-terminus); printed as N-alpha-[(S)-4-Carboxy-4-(19-carboxynonadecanoylamino)butyryl]-His-His-[Arg1,His17]-pramlintide
B4: N-alpha-[2-(2-{2-[2-(2-{2-[(S)-4-Carboxy-4-(19-carboxyheptadecanoylamino)butyrylamino]ethoxy}ethoxy)acetylamino]ethoxy}ethoxy)acetyl]-[His17]-pramlintide (2-37) (peptide)
peptide: CNTATCATQRLANFLHHSSNNFGPILPPTNVGSNTY-NH2
modifications: disulfide 1-6; not fully specified (N-terminus); printed as N-alpha-[2-(2-{2-[2-(2-{2-[(S)-4-Carboxy-4-(19-carboxyheptadecanoylamino)butyrylamino]ethoxy}ethoxy)acetylamino]ethoxy}ethoxy)acetyl]-[His17]-pramlintide (2-37)
B5: N-alpha-[(S)-4-Carboxy-4-(19-carboxynonadecanoylamino)butyryl]-Arg-His[Arg1,His17]-pramlintide (peptide)
peptide: X2-RHRCNTATCATQRLANFLHHSSNNFGPILPPTNVGSNTY-NH2
modifications: disulfide 4-9
SMILES: CC[C@H](C)[C@H](NC(=O)[C@@H]1CCCN1C(=O)CNC(=O)[C@H](Cc1ccccc1)NC(=O)[C@H](CC(N)=O)NC(=O)[C@H](CC(N)=O)NC(=O)[C@H](CO)NC(=O)[C@H](CO)NC(=O)[C@H](Cc1c[nH]cn1)NC(=O)[C@H](Cc1c[nH]cn1)NC(=O)[C@H](CC(C)C)NC(=O)[C@H](Cc1ccccc1)NC(=O)[C@H](CC(N)=O)NC(=O)[C@H](C)NC(=O)[C@H](CC(C)C)NC(=O)[C@H](CCCNC(=N)N)NC(=O)[C@H](CCC(N)=O)NC(=O)[C@@H](NC(=O)[C@H](C)NC(=O)[C@@H]1CSSC[C@H](NC(=O)[C@H](CCCNC(=N)N)NC(=O)[C@H](Cc2c[nH]cn2)NC(=O)[C@H](CCCNC(=N)N)NC(=O)CC[C@H](NC(=O)CCCCCCCCCCCCCCCCCCC(=O)O)C(=O)O)C(=O)N[C@@H](CC(N)=O)C(=O)N[C@@H]([C@@H](C)O)C(=O)N[C@@H](C)C(=O)N[C@@H]([C@@H](C)O)C(=O)N1)[C@@H](C)O)C(=O)N[C@@H](CC(C)C)C(=O)N1CCC[C@H]1C(=O)N1CCC[C@H]1C(=O)N[C@H](C(=O)N[C@@H](CC(N)=O)C(=O)N[C@H](C(=O)NCC(=O)N[C@@H](CO)C(=O)N[C@@H](CC(N)=O)C(=O)N[C@H](C(=O)N[C@@H](Cc1ccc(O)cc1)C(N)=O)[C@@H](C)O)C(C)C)[C@@H](C)O
B6: N-alpha-[19-carboxynonadecanoyl]-Glu-Lys-[Arg1,His17]-pramlintide (peptide)
peptide: {C20 diacid}-EKRCNTATCATQRLANFLHHSSNNFGPILPPTNVGSNTY-NH2
modifications: disulfide 4-9
SMILES: CC[C@H](C)[C@H](NC(=O)[C@@H]1CCCN1C(=O)CNC(=O)[C@H](Cc1ccccc1)NC(=O)[C@H](CC(N)=O)NC(=O)[C@H](CC(N)=O)NC(=O)[C@H](CO)NC(=O)[C@H](CO)NC(=O)[C@H](Cc1c[nH]cn1)NC(=O)[C@H](Cc1c[nH]cn1)NC(=O)[C@H](CC(C)C)NC(=O)[C@H](Cc1ccccc1)NC(=O)[C@H](CC(N)=O)NC(=O)[C@H](C)NC(=O)[C@H](CC(C)C)NC(=O)[C@H](CCCNC(=N)N)NC(=O)[C@H](CCC(N)=O)NC(=O)[C@@H](NC(=O)[C@H](C)NC(=O)[C@@H]1CSSC[C@H](NC(=O)[C@H](CCCNC(=N)N)NC(=O)[C@H](CCCCN)NC(=O)[C@H](CCC(=O)O)NC(=O)CCCCCCCCCCCCCCCCCCC(=O)O)C(=O)N[C@@H](CC(N)=O)C(=O)N[C@@H]([C@@H](C)O)C(=O)N[C@@H](C)C(=O)N[C@@H]([C@@H](C)O)C(=O)N1)[C@@H](C)O)C(=O)N[C@@H](CC(C)C)C(=O)N1CCC[C@H]1C(=O)N1CCC[C@H]1C(=O)N[C@H](C(=O)N[C@@H](CC(N)=O)C(=O)N[C@H](C(=O)NCC(=O)N[C@@H](CO)C(=O)N[C@@H](CC(N)=O)C(=O)N[C@H](C(=O)N[C@@H](Cc1ccc(O)cc1)C(N)=O)[C@@H](C)O)C(C)C)[C@@H](C)O
B7: N-alpha-[(S)-4-Carboxy-4-(19-carboxynonadecanoylamino)butyryl]-His-Arg-[His1,His17]-pramlintide (peptide)
peptide: HRHCNTATCATQRLANFLHHSSNNFGPILPPTNVGSNTY-NH2
modifications: disulfide 4-9; not fully specified (N-terminus); printed as N-alpha-[(S)-4-Carboxy-4-(19-carboxynonadecanoylamino)butyryl]-His-Arg-[His1,His17]-pramlintide
B8: N-alpha-[2-(2-{2-[4-(S)-Carboxy-4-(19-carboxynonadecanoylamino)butyrylamino]ethoxy}ethoxy)acetyl]-His-His-[Arg1,Arg17,Gln21]-pramlintide (peptide)
peptide: {C20 diacid-γGlu-AEEA}-HHRCNTATCATQRLANFLRHSSQNFGPILPPTNVGSNTY-NH2
modifications: disulfide 4-9
SMILES: CC[C@H](C)[C@H](NC(=O)[C@@H]1CCCN1C(=O)CNC(=O)[C@H](Cc1ccccc1)NC(=O)[C@H](CC(N)=O)NC(=O)[C@H](CCC(N)=O)NC(=O)[C@H](CO)NC(=O)[C@H](CO)NC(=O)[C@H](Cc1c[nH]cn1)NC(=O)[C@H](CCCNC(=N)N)NC(=O)[C@H](CC(C)C)NC(=O)[C@H](Cc1ccccc1)NC(=O)[C@H](CC(N)=O)NC(=O)[C@H](C)NC(=O)[C@H](CC(C)C)NC(=O)[C@H](CCCNC(=N)N)NC(=O)[C@H](CCC(N)=O)NC(=O)[C@@H](NC(=O)[C@H](C)NC(=O)[C@@H]1CSSC[C@H](NC(=O)[C@H](CCCNC(=N)N)NC(=O)[C@H](Cc2c[nH]cn2)NC(=O)[C@H](Cc2c[nH]cn2)NC(=O)COCCOCCNC(=O)CC[C@H](NC(=O)CCCCCCCCCCCCCCCCCCC(=O)O)C(=O)O)C(=O)N[C@@H](CC(N)=O)C(=O)N[C@@H]([C@@H](C)O)C(=O)N[C@@H](C)C(=O)N[C@@H]([C@@H](C)O)C(=O)N1)[C@@H](C)O)C(=O)N[C@@H](CC(C)C)C(=O)N1CCC[C@H]1C(=O)N1CCC[C@H]1C(=O)N[C@H](C(=O)N[C@@H](CC(N)=O)C(=O)N[C@H](C(=O)NCC(=O)N[C@@H](CO)C(=O)N[C@@H](CC(N)=O)C(=O)N[C@H](C(=O)N[C@@H](Cc1ccc(O)cc1)C(N)=O)[C@@H](C)O)C(C)C)[C@@H](C)O

These binders were tested against T1, Amylin 3(a) receptor (human calcitonin …) (assay: cell-based or functional assay).

| Binder | Potency Luciferase |
| --- | --- |
| {C20 diacid-γGlu}-KCNTATCATQRLANFLHHSSNNFGPILPPTNVGSNTY-NH2 (disulfide 2-7) [N-alpha-[(S)-4-Carboxy-4-(19-carboxynonadecanoylamino)butyryl]-[His17]-pramlintide] | 200 pM |
| B1 | 100 pM |
| B2 | 60 pM |
| B3 | 90 pM |
| B4 | 70 pM |
| B5 | 100 pM |
| {5‑carboxypentanoyl-γGlu}-HHHCNTATCATQRLANFLHHSSNNFGPILPPTNVGSNTY-NH2 (disulfide 4-9) [N-alpha-[(S)-4-Carboxy-4-(5-carboxypentanoylamino)butyryl]-His-His-[His1,His17]-pramlintide] | 40 pM |
| B6 | 70 pM |
| B7 | 50 pM |
| {C18 diacid-γGlu-AEEA-AEEA}-CNTATCATQRLANFLHHSSNNFGPILPPTNVGSNTY-NH2 (disulfide 1-6) | 40 pM |
| B8 | 100 pM |
